# Assay results reported in patent publication US20070123465A1 (IPF PHARMACEUTICALS, published 2007).
# Square brackets hold non-standard residues; d marks the D form. Ends that are not written are not given here. miniPEG = PEG spacer between peptide and cysteine; dTic = O=C(O)[C@H]1Cc2ccccc2CN1; NMeL = CN[C@@H](CC(C)C)C(=O)O
# B1: VIR-574 (peptide)
# peptide: LEAIPMSIPPEFLFGKPFVFKG
# modifications: also: homodimer: C-termini linked to both amino groups of a C-terminal lysine core -K-G
# Biological target: T1, fusion peptide of HIV gp41 (HIV-1 strain NL4-3) (HIV-1 strain NL4-3)
# Test: cell-based or functional assay
row,Binder,"IC50 NL4-3 [nM], anti-HIV activity (infection of P4-CCR5 indicator cells, beta-galactosidase reporter) [nM]"
1,B1,3080
2,LEAIPMCIPPEFLFGKPFVF (also: homodimer via intermolecular disulfide between Cys7 of the two chains) [VIR-577],3270
3,LEAIPMSIPPEFLFGKPFVF-{miniPEG-Cys-NH2} (also: homodimer disulfide bonded through the C-terminal cysteine) [VIR-673],664
4,LEKIPCSIP[dP]EVAFNKPFVF (also: homodimer via intermolecular disulfide Cys6-Cys6) [VIR-705],484
5,LEAIPCGIP[dP]EV[dTic]FNKPFVF (also: homodimer via intermolecular disulfide Cys6-Cys6) [VIR-706],74
6,[NMeL]EAIPCSIPPEFLFGKPFVF (also: homodimer via intermolecular disulfide between Cys6 of the two chains) [VIR-712],195
7,[NMeL]EKIPCSIPPEFLFGKPFVF (also: homodimer via intermolecular disulfide between Cys6 of the two chains) [VIR-716],182
8,[NMeL]EDIPCSIPPEFLFGKPFVF (also: homodimer via intermolecular disulfide between Cys6 of the two chains) [VIR-717],635

# Biological target: T1, fusion peptide of HIV gp41 (HIV-1 …)
# Test: cell-based or functional assay
# Remark: another data set of the same source
row,Binder,"IC50, inhibition of HIV infection, HIV strain NL4-3 [nM]"
1,LEAIPCSIPPEFLFGKPFVF (not fully specified) [VIRIP (virus inhibiting peptide)],15000
